Assay results taken from paper PMC7110135, “Molecular flexibility of DNA as a key determinant of RAD51 recruitment”.
Blank lines part the entries; values can stand above or below the molecule they belong to.

Tests used:
F86E RAD51 (human) = F86E RAD51 (human) (UniProt Q06609); assay: SPR; Biotinylated ssDNA dT-50, dN-50, dA-50 and dsDNA dN-50p held on streptavidin-coated CM5 chips; F86E RAD51 injected at 30 uM; 37 C; same SPR running buffer with ATP and CaCl2. The protomer-protomer KD in solution is a single fit parameter of a simplified ODE polymerisation model, fitted to all four curves by ABC-SMC (n = 3).
RAD51 WT [1] = target: T1, RAD51 WT (Homo sapiens, UniProt Q06609 1-339); assay: SPR; ATP, Ca2+; SPR (Biacore T200, streptavidin CM5): 150 mM KCl, 20 mM Hepes pH 7.5, 2 mM DTT, 5 mg/ml BSA, 2.5 mM ATP, 10 mM CaCl2, 10% glycerol, 37 C; details: protein: recombinant, tags: untagged
RAD51 WT [2] = target: T1, RAD51 WT; assay: SPR; 150 nM RAD51, 2.5 mM ATP, 10 mM Ca2+; slower association than dN-50, similar lifetime; SPR (Biacore T200, streptavidin CM5): 150 mM KCl, 20 mM Hepes pH 7.5, 2 mM DTT, 5 mg/ml BSA, 2.5 mM ATP, 10 mM CaCl2, 10% glycerol, 37 C; details: protein: recombinant; tags: untagged; chain copies: 16; label: 5' Biotin (C6) on strand 1; blunt
RAD51 WT [3] = target: T1, RAD51 WT; assay: SPR; ATP, Ca2+; faster association than dN-50; SPR (Biacore T200, streptavidin CM5): 150 mM KCl, 20 mM Hepes pH 7.5, 2 mM DTT, 5 mg/ml BSA, 2.5 mM ATP, 10 mM CaCl2, 10% glycerol, 37 C; details: protein: recombinant; tags: untagged; chain copies: 10; label: 5' Biotin (C6)
[4] = target: T2, human wild-type (WT) RAD51 (human), Q06609; assay: SPR; Biotinylated ssDNA (dN-X) and dsDNA (dN-Xp) held on streptavidin-coated CM5 chips; WT RAD51 injected at 150 nM or 3 uM; 37 C; 150 mM KCl, 20 mM Hepes pH 7.5, 2 mM DTT, 5 mg/ml BSA, 2.5 mM ATP, 10 mM CaCl2, 10% glycerol. The protomer-protomer KD in solution is a single fit parameter of an ODE polymerisation model, fitted to all curves by ABC-SMC (n = 3).; details: remark: other sources report otherwise
T2 chain: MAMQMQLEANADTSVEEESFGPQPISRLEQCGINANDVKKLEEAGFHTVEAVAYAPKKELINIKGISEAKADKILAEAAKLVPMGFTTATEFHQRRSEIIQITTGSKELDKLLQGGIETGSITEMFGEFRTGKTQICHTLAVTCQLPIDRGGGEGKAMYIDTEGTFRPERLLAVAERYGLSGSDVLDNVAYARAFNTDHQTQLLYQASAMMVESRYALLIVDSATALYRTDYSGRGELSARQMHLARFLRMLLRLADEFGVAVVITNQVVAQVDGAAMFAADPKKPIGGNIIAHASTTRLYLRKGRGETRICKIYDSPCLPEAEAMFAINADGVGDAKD

RAD51 WT [5] = target: T1, RAD51 WT; assay: SPR; 3 uM RAD51, ATP, Ca2+; slightly faster association, slow dissociation; SPR (Biacore T200, streptavidin CM5): 150 mM KCl, 20 mM Hepes pH 7.5, 2 mM DTT, 5 mg/ml BSA, 2.5 mM ATP, 10 mM CaCl2, 10% glycerol, 37 C; details: protein: recombinant; tags: untagged; chain copies: 10; label: 3' Biotin-TEG
RAD51 WT [6] = target: T1, RAD51 WT; assay: SPR; 3 uM RAD51, ATP, Ca2+; faster association, slower dissociation than dN-8p; SPR (Biacore T200, streptavidin CM5): 150 mM KCl, 20 mM Hepes pH 7.5, 2 mM DTT, 5 mg/ml BSA, 2.5 mM ATP, 10 mM CaCl2, 10% glycerol, 37 C; details: protein: recombinant; tags: untagged; chain copies: 16; label: 3' Biotin-TEG on strand 2; hairpin, two strands joined by (HEG)2, blunt
RAD51 WT [7] = target: T1, RAD51 WT; assay: SPR; 150 nM RAD51, 2.5 mM ATP, 10 mM Ca2+; faster association than dN-50p; SPR (Biacore T200, streptavidin CM5): 150 mM KCl, 20 mM Hepes pH 7.5, 2 mM DTT, 5 mg/ml BSA, 2.5 mM ATP, 10 mM CaCl2, 10% glycerol, 37 C; details: protein: recombinant; tags: untagged; chain copies: 10; label: 5' Biotin (C6)
[8] = chain copies: 10, label: 3' Biotin-TEG

Kd (F86E RAD51 (human)): 10.2 µM
Molecule: F86E RAD51 (from UniProt Q06609 1-339) (natural protein)

B1: dsDNA dN-5p (dsDNA)
DNA 1: CGGAC
DNA 2: GTCCG
modifications: two hexaethylene glycol linkers join 3' end of strand 1 to 5' end of strand 2
binding result (RAD51 WT [1]; chain copies: 16, label: 3' Biotin-TEG on strand 2, hairpin, two strands joined by (HEG)2, blunt): no binding

B2: dsDNA dN-50p (dsDNA)
DNA 1: TCGAGAGGGTAAACCACAATTATCGCCTACCCAAAACTATTTTATATCAA
DNA 2: TTGATATAAAATAGTTTTGGGTAGGCGATAATTGTGGTTTACCCTCTCGA
binding result (RAD51 WT [2]): binds

Molecule: CGTCGATAGGC (ssDNA) [ssDNA dN-11]
binding result (RAD51 WT [1]; [8]): no binding

Molecule: TTTTTTTTTTTTTTTTTTTTTTTTTTTTTTTTTTTTTTTTTTTTTTTTTT (ssDNA) [ssDNA dT-50]
binding result (RAD51 WT [3]): binds

Kd [4]: 0.00114 µM
B3: human wild-type (WT) RAD51, Q06609 1-339 (natural protein)
chain: MAMQMQLEANADTSVEEESFGPQPISRLEQCGINANDVKKLEEAGFHTVEAVAYAPKKELINIKGISEAKADKILAEAAKLVPMGFTTATEFHQRRSEIIQITTGSKELDKLLQGGIETGSITEMFGEFRTGKTQICHTLAVTCQLPIDRGGGEGKAMYIDTEGTFRPERLLAVAERYGLSGSDVLDNVAYARAFNTDHQTQLLYQASAMMVESRYALLIVDSATALYRTDYSGRGELSARQMHLARFLRMLLRLADEFGVAVVITNQVVAQVDGAAMFAADPKKPIGGNIIAHASTTRLYLRKGRGETRICKIYDSPCLPEAEAMFAINADGVGDAKD

Molecule: CGGAC (ssDNA) [ssDNA dN-5]
binding result (RAD51 WT [1]; [8]): no binding

Molecule: CGTCGATGAGCAGTGTC (ssDNA) [ssDNA dN-17]
binding result (RAD51 WT [5]): binds

B4: dsDNA dN-11p (dsDNA)
DNA 1: CGTCGATAGGC
DNA 2: GCCTATCGACG
modifications: two hexaethylene glycol linkers join 3' end of strand 1 to 5' end of strand 2
binding result (RAD51 WT [6]): binds

Molecule: CTGACTGC (ssDNA) [ssDNA dN-8]
binding result (RAD51 WT [1]; [8]): no binding

Molecule: TTGAGAGAGCAGACCACAATTATCACCTACACGACATCATTTTATATCAA (ssDNA) [ssDNA dN-50]
binding result (RAD51 WT [7]): binds
